What was measured:
[1] = biological target: B.1.526 Iota variant spike protein on recombinant USA-WA1/2020 virus (SARS-CoV-2); assay: cell-based or functional assay
[2] = biological target: T1, wild type RBD protein (generated as in Ku et al. 2021) (SARS-CoV-2, UniProt P0DTC2 319-541)
[3] = biological target: T1, wild type RBD protein (generated as in …); assay: binding KD on RBD protein, generally as Example 4
[4] = biological target: T1, wild type RBD protein (generated as in …); assay: BLI competition, RBD on sensor, antibody then ACE2; competitor ACE2

Row | Binder | Neutralization EC50 (PRNT) [1] [µg/mL] | EC50 (read off the curve) [2] [nM] | Fold-Increase in potency of IgM over IgG [1] [fold] | Kd [3] [nM] | EC50 [4] [nM]
1 | anti-SARS-CoV2-14 IgG (full lambda light chain) (antibody, V domains shown) VH: EVQLQQSGPGLVKPSQTLSLTCAISGDSVSSNSAAWNWIRQSPSRGLEWLGRTYYRSKWYNDYAVSVKSRITINPDTSKNQFSLQLNSVTPEDTAVYYCAREEQQLVHDYYYYGMDVWGQGTMVTVSS VL: QAVVTQPASVSGSPGQSITISCTGTSSDIGAYNYISWYQQHPGKAPKLIIYEVSNRPSGISYRFSGSKSGNTASLTISGLQAEDEANYYCSSYAGSISFGGGTKVTVL | 170 |  |  |  | 
2 | anti-SARS-CoV2-14 IgM (full lambda light chain) (antibody) heavy: EVQLQQSGPGLVKPSQTLSLTCAISGDSVSSNSAAWNWIRQSPSRGLEWLGRTYYRSKWYNDYAVSVKSRITINPDTSKNQFSLQLNSVTPEDTAVYYCAREEQQLVHDYYYYGMDVWGQGTMVTVSSGSASAPTLFPLVSCENSPSDTSSVAVGCLAQDFLPDSITFSWKYKNNSDISSTRGFPSVLRGGKYAATSQVLLPSKDVMQGTDEHVVCKVQHPNGNKEKNVPLPVIAELPPKVSVFVPPRDGFFGNPRKSKLICQATGFSPRQIQVSWLREGKQVGSGVTTDQVQAEAKESGPTTYKVTSTLTIKESDWLSQSMFTCRVDHRGLTFQQNASSMCVPDQDTAIRVFAIPPSFASIFLTKSTKLTCLVTDLTTYDSVTISWTRQNGEAVKTHTNISESHPNATFSAVGEASICEDDWNSGERFTCTVTHTDLPSPLKQTISRPKGVALHRPDVYLLPPAREQLNLRESATITCLVTGFSPADVFVQWMQRGQPLSPEKYVTSAPMPEPQAPGRYFAHSILTVSEEEWNTGETYTCVVAHEALPNRVTERTVDKSTGKPTLYNVSLVMSDTAGTCY light: QAVVTQPASVSGSPGQSITISCTGTSSDIGAYNYISWYQQHPGKAPKLIIYEVSNRPSGISYRFSGSKSGNTASLTISGLQAEDEANYYCSSYAGSISFGGGTKVTVLGQPKAAPSVTLFPPSSEELQANKATLVCLISDFYPGAVTVAWKADSSPVKAGVETTTPSKQSNNKYAASSYLSLTPEQWKSHRSYSCQVTHEGSTVEKTVAPTECS not shown | 0.032 | ~0.9 | 5300 | < 0.001 | 0.86

Source: patent US20220267415A1 (University of Texas, published 2022)
